Assay results from patent US10202584B2, “Red-shifted luciferase-luciferin pairs for enhanced bioluminescence” (The Regents of the University of California, priority 2016, dated 2019).

Experiments:
[1] = substrate: O=c1c(Cc2ccccc2)nc2c(-c3ccccc3)[nH]c(-c3ccccc3)cn1-2; assay: purified protein, by the assay type; conditions: other: apparent, 100 pM enzyme, substrate 0.78 to 50 μM, assay buffer pH 6.0, mean ± s.d., n = 3, 37.0 °C
[2] = substrate: O=c1c(Cc2ccccc2)nc2c([Se]c3ccccc3)[nH]c(-c3ccccc3)cn1-2; assay: purified protein, by the assay type; conditions: other: apparent, 100 pM enzyme, substrate 0.78 to 50 μM, assay buffer pH 6.0, mean ± s.d., n = 3, 37.0 °C
Procedure: FIG. 8 is a panel of graphs showing substrate titrations with pure enzymes to determine apparent Michaelis constants (Km). Titrations using new luciferases (8a) and Fluc (8b) are shown. The final concentrations of all enzymes were 100 pM. Substrate concentrations varied from 0.78 to 50 μM, and peak bioluminescence intensities at individual substrate concentrations were used to fit the Michaelis-Menten equation. Data are shown as mean and s.d. of three independent experiments.
Luciferases were expressed and purified as His6-tagged fusion proteins (FIG. 18).
A Synergy Mx Microplate Reader (BioTek) was used for all in vitro bioluminescence characterizations. For kinetics measurements, no emission filter or monochromator was used. 50 μL of luciferin substrates in the assay buffer (1 mM CDTA, 0.5% Tergitol NP-40, 0.05% Antifoam 204, 150 mM KCl, 100 mM IVIES pH 6.0, 1 mM DTT, and 35 mM thiourea) was injected into the wells of white 96-well plates containing 50 μL of pure enzymes in the same assay buffer. The final concentrations of all enzymes and substrates were 100 pM and 30 μM, respectively. Measurements were taken every 60 s post-injection (1-s integration and 10-s shaking during intervals). FLuc bioluminescence assays were performed similarly, except the assay buffer contained 30 mM MOPS, pH 7.0, 1.5 mM ATP, and 5 mM MgSO4.

Protein | Km [1] | kcat [1] | Km [2] | kcat [2]
teLuc, NanoLuc variant D19S/D85N/C164H, SEQ ID NO: 2 (Oplophorus gracilirostris; … (protein) MVFTLEDFVGDWRQTAGYNLSQVLEQGGVSSLFQNLGVSVTPIQRIVLSGENGLKIDIHVIIPYEGLSGDQMGQIEKIFKVVYPVDNHHFKVILHYGTLVIDGVTPNMIDYFGRPYEGIAVFDGKKITVTGTLWNGNKIIDERLINPDGSLLFRVTINGVTGWRLHERILA | 10.2 ± 0.4 µM | 88.1 ± 0.1 s⁻¹ |  | 
yeLuc0.8, NanoLuc variant L18Q/D19A/S28T/C164S, SEQ ID NO: 3 (Oplophorus gracilirostris; … (protein) MVFTLEDFVGDWRQTAGYNQAQVLEQGGVTSLFQNLGVSVTPIQRIVLSGENGLKIDIHVIIPYEGLSGDQMGQIEKIFKVVYPVDDHHFKVILHYGTLVIDGVTPNMIDYFGRPYEGIAVFDGKKITVTGTLWNGNKIIDERLINPDGSLLFRVTINGVTGWRLSERILA |  |  | 6.3 ± 0.5 µM | 
Antares2 (Antares with NanoLuc replaced by teLuc, D19S/D85N/C164H; fused to CyOFP1) (Oplophorus gracilirostris; … (protein) MVFTLEDFVGDWRQTAGYNLSQVLEQGGVSSLFQNLGVSVTPIQRIVLSGENGLKIDIHVIIPYEGLSGDQMGQIEKIFKVVYPVDNHHFKVILHYGTLVIDGVTPNMIDYFGRPYEGIAVFDGKKITVTGTLWNGNKIIDERLINPDGSLLFRVTINGVTGWRLHERILA | 9.7 ± 0.2 µM | 86.1 ± 0.7 s⁻¹ |  | 
yeLuc, NanoLuc variant yeLuc0.8-F1L/A14D/V27L/Q69R/R112Q/L142R (yeLuc0.8 = NanoLuc-L18Q/D19A/S28T/C164S), SEQ ID NO: 4 (Oplophorus gracilirostris; … (protein) MVLTLEDFVGDWRQTDGYNQAQVLEQGGLTSLFQNLGVSVTPIQRIVLSGENGLKIDIHVIIPYEGLSGDRMGQIEKIFKVVYPVDDHHFKVILHYGTLVIDGVTPNMIDYFGQPYEGIAVFDGKKITVTGTLWNGNKIIDERRINPDGSLLFRVTINGVTGWRLSERILA |  |  | 11.9 ± 0.9 µM | 175 ± 5 s⁻¹
